Results: US12296018B2, “Albumin binding peptide-drug (AlBiPeD) conjugates and methods of making and using same” (priority 2018, dated 2025)
pIC50: −log10 of the molar value. Several values for one entry are separate records, joined by “and”; a condition that tells them apart may be missing. Identical values can stand only once. Entries after “also recorded” stand apart in the source; their conditions may differ.

How the values were obtained:
[1] = tested on: AsPC-1 pancreatic cancer cells; test: In vitro cytotoxicity (MTS, 72 h) AsPC-1; type: cell-based, human; conditions: 72 h incubation, Dox Equiv. concentration
Method: (§1) In vitro cytotoxicity C26 murine colon carcinoma cells and three different pancreatic cancer cell lines, BxPC-3, AsPC-1, and MIA PaCa-2, were used to study the in vitro cytotoxicity of ABD-DOX and Dox. Cells were cultured and grown as monolayers at 37° C. with C02 in a humidified incubator and were passaged at ˜80% confluency using 0.05% trypsin-EDTA (Invitrogen, Carlsbad, CA). C26, BxPC-3, AsPC-1, and MIA PaCa-2 cells were seeded in 96-well plates (5,000 cells/well) and incubated overnight. Three-fold serial dilutions of drug were then added to the wells in triplicate and also to control wells (media with no cells) to correct for the background Dox absorbance. After 72 h treatment, 20 μL MTS reagent was added to each well and was incubated for 3 h at 37° C., and the absorbance at 490 nm was measured using a Victor3 plate reader (Perkin Elmer, Boston, MA). Cell viability (%) was defined as the percentage of the absorbance of the drug-treated cells relative to buffer-treated cells and IC50 values were determined using logistic non-linear regression analysis with GraphPad Prism software. The IC50 was defined as the Dox Equiv. concentration of formulations resulting in 50% growth inhibition compared with a negative control, buffer-treated cells.

Aqueous solubility = type: physicochemical; conditions: pH 7.4 PBS
Method: To remove the ELP160 tag, the KEKE-ELP160-srt-ABD-Dox conjugate was buffer exchanged into sortase reaction buffer, and was reacted with (His)6-sortase A-ELP40 in the presence of a 50 fold molar excess of triglycine (FIG. 2A). The efficiency of the sortase reaction, defined as the percent conversion of ELP-ABD-Dox substrate to ABD-Dox, was determined by size exclusion HPLC and was calculated to be ≥85% (FIG. 3A). The ABD-Dox product was then separated from (His)6-sortase A-ELP40, the cleaved KEKE-ELP160 tag, and unreacted KEKE-ELP160-srt-ABD-Dox in the sortase reaction solution by preparative size exclusion chromatography (SEC). The number of Dox molecules conjugated per ABD (Dox/ABD molar ratio) was measured before the sortase reaction by dissolving the lyophilized KEKE-ELP160-srt-ABD-Dox conjugate in PBS and calculating the moles of KEKE-ELP160-srt-ABD-Dox and Dox gravimetrically and spectrophotometrically at 488 nm, respectively. 3-4 Dox molecules were attached to each KEKE-ELP160-srt-ABD-(CGG)8. However, following removing the ELP160 tag, the resulting ABD-Dox conjugate was too hydrophobic and insoluble in pH 7.4 PBS because of the high number of conjugated Dox molecules. […] Formulation of AlDox in acidic pH, however, is undesirable as it can trigger the premature, in vitro degradation of the hydrazone bond between Dox and EMCH, converting AlDox back to free Dox.

[2] = tested on: C26 murine colon carcinoma cells; test: In vitro cytotoxicity (MTS, 72 h) C26; type: cell-based
Method: as §1

[3] = biological target: T1, mouse serum albumin (MSA) (Mus musculus, UniProt P07724); test: Isothermal titration calorimetry of ABD-Dox with MSA; type: binding; conditions: ITC, 37° C., PBS
T1 construct: purchased Sigma-Aldrich (St. Louis, MO)
Method: (§2) The gel was stained with SimplyBlue stain according to the manufacturer's instructions and imaged using the Gel Doc imaging system (Bio-Rad, Hercules, CA). Isothermal titration calorimetry was done using a standard volume Nano ITC from TA instruments (Lindon, Utah). […] The calorimetric data were analyzed by NanoAnalyze software (TA instruments, Lindon, UT) and were fit to an independent binding site model to compute the thermodynamic parameters including dissociation constant (KD), binding stoichiometry (n), enthalpy (ΔH), and entropy (ΔS).

[4] = tested on: BxPC-3 pancreatic cancer cells; test: In vitro cytotoxicity (MTS, 72 h) BxPC-3; type: cell-based, human; conditions: 72 h incubation, Dox Equiv. concentration
Method: as §1

[5] = Tissue biodistribution in C26 tumor-bearing BALB/c mice; type: in vivo
Source text: The tissue concentration of Dox.

[6] = pH-dependent Dox release from ABD-Dox conjugate (size exclusion HPLC); type: physicochemical
Method: Drug release Dox release from the ABD-Dox conjugate was measured at pH 7.4 and 5.0, corresponding to the physiological pH and late endosomal pH, respectively. ABD-Dox in PBS (400 μM Dox Equiv.) was diluted with an equal volume of either 0.1 M Na—PO4, pH 7.4 buffer, 0.1 M Na-acetate, pH 5.0 buffer, incubated at 37° C. for 0, 0.25, 0.5, 1, 2, 4, 6, and 24 h, and neutralized using an equal volume of 0.1 M Na—PO4, pH 7.4 buffer. Samples were then analyzed by size exclusion HPLC using the same chromatography conditions as described above for the characterization of Dox conjugates and the percentage of released Dox was calculated by integrating the area under the peak corresponding to unbound Dox. The cumulative percent released Dox (F %, released) versus time was fit to a first order release model: F %, released=a[1−exp(−ln(2)t/t1/2)] where t is the time (h) after incubation, tia is the half-maximal release time (h), and a (%) is the maximum extent of drug release, using GraphPad Prism software (GraphPad, San Diego, CA).

[7] = biological target: T2, human serum albumin (HSA) (Homo sapiens, UniProt P02768); test: Isothermal titration calorimetry of ABD-Dox with HSA; type: binding; conditions: ITC, 37° C., PBS
T2 construct: purchased Sigma-Aldrich (St. Louis, MO)
Method: as §2

T1 sequence (P07724 25-608): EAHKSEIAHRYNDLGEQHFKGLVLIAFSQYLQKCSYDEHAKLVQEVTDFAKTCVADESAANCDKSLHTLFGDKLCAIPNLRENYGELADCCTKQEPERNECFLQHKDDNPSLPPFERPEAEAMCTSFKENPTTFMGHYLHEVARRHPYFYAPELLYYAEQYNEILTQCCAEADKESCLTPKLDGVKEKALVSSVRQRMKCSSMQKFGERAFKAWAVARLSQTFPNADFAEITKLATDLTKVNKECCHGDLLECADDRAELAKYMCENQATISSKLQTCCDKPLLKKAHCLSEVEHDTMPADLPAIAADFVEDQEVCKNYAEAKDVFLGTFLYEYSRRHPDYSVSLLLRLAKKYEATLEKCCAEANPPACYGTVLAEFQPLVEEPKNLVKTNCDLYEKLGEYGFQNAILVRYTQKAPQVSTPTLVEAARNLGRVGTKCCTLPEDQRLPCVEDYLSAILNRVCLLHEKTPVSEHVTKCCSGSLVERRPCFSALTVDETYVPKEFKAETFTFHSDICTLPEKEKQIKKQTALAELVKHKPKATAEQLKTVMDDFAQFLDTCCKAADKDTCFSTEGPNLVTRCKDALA

Substance: ABD-Dox (GLAEAKVLANRELDKYGVSDYYKNLINNAKTVEGVKALIDEILAALPCGGCGGCGGCGG)
- pIC50 [1]: 4.82
- aqueous solubility (Aqueous solubility): up to 4 mg Dox Equiv.mL^−1
- pIC50 ([2]; 72 h incubation, Dox Equiv. concentration): 5.19
- in vitro cytotoxicity, fold lower than free Dox ([2]; C26 and MIA PaCa-2 cells): 10-30 fold
- ΔH [3]: -4.45 kcal/mol
- ΔS [3]: 76.6 Jmol^−1K^−1
- n (binding stoichiometry) ([3]; independent binding site model): 0.94 and 0.9
- pIC50 [4]: 5.05
- AUC in other tissues compared to free Dox ([5]; 2 to 72 h): No significant difference
- AUC in the spleen, lower than free Dox ([5]; 2 to 72 h): ~50%
- AUC in the tumor, fold greater than free Dox ([5]; 2 to 72 h): 16 fold
- concentration in kidneys compared to free Dox ([5]; 2 h): lower concentration
- concentration in liver compared to free Dox ([5]; 2 h): lower concentration
- concentration in muscle compared to free Dox ([5]; 2 h): lower concentration
- concentration in spleen compared to free Dox ([5]; 2 h): lower concentration
- concentration in heart compared to free Dox ([5]; 24 h): higher concentration
- concentration in liver compared to free Dox ([5]; 24 h): higher concentration
- concentration in lungs compared to free Dox ([5]; 24 h): higher concentration
- concentration in muscle compared to free Dox ([5]; 24 h): higher concentration
- concentration in spleen compared to free Dox ([5]; 24 h): lower concentration
- accumulation in kidneys compared to free Dox ([5]; 72 h): higher
- accumulation in liver compared to free Dox ([5]; 72 h): higher
- accumulation in lungs compared to free Dox ([5]; 72 h): higher
- accumulation in muscle compared to free Dox ([5]; 72 h): higher
- tumor accumulation, fold greater than free Dox ([5]; 72 h): ~120 fold
- drug released ([6]; pH 5.0, over 24 h, 37° C.): about 70%
- Dox release ([6]; pH 7.4, 37° C.): negligible; also recorded: low, basal level of release
- ΔH [7]: -6.72 kcal/mol
- ΔS [7]: 41.5 Jmol^−1K^−1
- n (binding stoichiometry) ([7]; independent binding site model): 1.03 and 1.0
